Experimental data: PMC6707239

Experiments:
[1] = target: human mitochondrial heat shock protein 60 (hsp60), wild type (human) (UniProt P10809); experiment: dynamic light scattering; Malvern Zetasizer Nano ZS, hsp60 (wild type or mutant) without nucleotide (APO); percent volume
[2] = target: human mitochondrial heat shock protein 60 (hsp60), wild type (human) (UniProt P10809); experiment: negative-stain electron microscopy; hsp60 and hsp10 (1:1 molar ratio) with 2 mM Mg-ADP, about 5 min at room temperature, no substrate
[3] = target: human mitochondrial heat shock protein 60 (hsp60), wild type (human) (UniProt P10809); experiment: dynamic light scattering; 1 uM hsp60 (wild type or mutant), 2 uM hsp10, 2 mM ADP; 5 min at 37 C; unbound nucleotide removed on desalting spin columns
[4] = target: human mitochondrial heat shock protein 60 (hsp60), wild type (human) (UniProt P10809); experiment: dynamic light scattering; 1 uM hsp60 (wild type or mutant), 2 uM hsp10, 100 mM ATP, 100 mM MgCl2; 5 min at 37 C; unbound nucleotide removed on desalting spin columns
[5] = target: human mitochondrial heat shock protein 60 (hsp60), wild type (human) (UniProt P10809); experiment: negative-stain electron microscopy; wild type hsp60/hsp10 with 2 mM ATP, about 5 min at room temperature, no substrate; bullet reconstruction, C7 symmetry, about 17 A
[6] = target: human mitochondrial heat shock protein 60 (hsp60), wild type (human) (UniProt P10809); experiment: negative-stain electron microscopy; hsp60 and hsp10 (2:1 molar ratio) with 100 mM ATP, about 5 min at room temperature, no substrate; football reconstruction, D7 symmetry, about 20 A
[7] = target: human mitochondrial heat shock protein 60 (hsp60), wild type (human) (UniProt P10809); experiment: negative-stain electron microscopy; purified hsp60/hsp10 at 0.2 mg/ml on carbon grids, no nucleotide and no substrate (APO conformation); class averages and single-particle reconstruction

human mitochondrial heat shock protein 60 (hsp60), wild type, sequence (P10809 27-573): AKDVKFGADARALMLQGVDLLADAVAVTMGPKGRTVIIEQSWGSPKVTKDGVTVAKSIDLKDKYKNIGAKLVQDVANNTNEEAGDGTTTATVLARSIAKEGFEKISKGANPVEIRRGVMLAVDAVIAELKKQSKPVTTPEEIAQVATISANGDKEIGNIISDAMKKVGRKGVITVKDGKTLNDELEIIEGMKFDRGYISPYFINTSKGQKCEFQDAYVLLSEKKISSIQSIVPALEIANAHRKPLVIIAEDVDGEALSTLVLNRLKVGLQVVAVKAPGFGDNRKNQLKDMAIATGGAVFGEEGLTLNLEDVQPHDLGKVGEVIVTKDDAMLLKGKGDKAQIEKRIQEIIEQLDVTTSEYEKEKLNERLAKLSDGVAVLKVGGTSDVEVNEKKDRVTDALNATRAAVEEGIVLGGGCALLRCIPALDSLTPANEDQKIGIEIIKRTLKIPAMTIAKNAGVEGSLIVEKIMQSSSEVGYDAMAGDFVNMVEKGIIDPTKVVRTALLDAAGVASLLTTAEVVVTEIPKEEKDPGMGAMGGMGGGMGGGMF

stoichiometry N [1]: 14 | stoichiometry N [2]: 7 | stoichiometry N [3]: 14 | stoichiometry N [4]: 14 | stoichiometry N [5]: 14 | stoichiometry N [6]: 14 | stoichiometry N [7]: 14
Substance: human mitochondrial heat shock protein 60 (hsp60), wild type (from UniProt P10809 27-573) (natural protein)
